{"source": "patent US20180371066A1", "about": "(C2N DIAGNOSTICS, published 2018)", "key": {"human tau [1]": {"target": "T1, human tau (human, UniProt P10636 2-60)", "T1 construct": "also called soluble human tau; human tau protein", "T1 sequence (P10636 2-60 limits assumed)": "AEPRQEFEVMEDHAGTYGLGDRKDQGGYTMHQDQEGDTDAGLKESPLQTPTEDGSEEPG", "test": "competition ELISA on plate-coated human tau against biotinylated HJ8.5; IC50 normalised to chimeric HJ8.5; column C2N Run 2"}, "human tau [2]": {"target": "T1, human tau", "test": "competition ELISA on plate-coated human tau against biotinylated HJ8.5; IC50 normalised to chimeric HJ8.5; column C2N Run 1"}, "PEP_2875825": {"target": "T2, PEP_2875825", "T2 peptide": "DQGGYTMHQAAEGDT", "test": "peptide array of 15-mers of human tau probed with the antibody; label LIN.AA (double alanine)"}, "PEP_2875819": {"target": "T3, PEP_2875819", "T3 peptide": "DRKDQGGYTAAQDQE", "test": "peptide array of 15-mers of human tau probed with the antibody; label LIN.AA (double alanine)"}, "PEP_2875827": {"target": "T4, PEP_2875827", "T4 peptide": "QGGYTMHQDAAGDTD", "test": "peptide array of 15-mers of human tau probed with the antibody; label LIN.AA (double alanine)"}, "PEP_2875809": {"target": "T5, PEP_2875809", "T5 peptide": "TYGLGDRKDAAGYTM", "test": "peptide array of 15-mers of human tau probed with the antibody; label LIN.AA (double alanine)"}, "PEP_2875817": {"target": "T6, PEP_2875817", "T6 peptide": "GDRKDQGGYAAHQDQ", "test": "peptide array of 15-mers of human tau probed with the antibody; label LIN.AA (double alanine)"}, "PEP_2875811": {"target": "T7, PEP_2875811", "T7 peptide": "YGLGDRKDQAAYTMH", "test": "peptide array of 15-mers of human tau probed with the antibody; label LIN.AA (double alanine)"}, "PEP_2875823": {"target": "T8, PEP_2875823", "T8 peptide": "KDQGGYTMHAAQEGD", "test": "peptide array of 15-mers of human tau probed with the antibody; label LIN.AA (double alanine)"}, "PEP_2875821": {"target": "T9, PEP_2875821", "T9 peptide": "RKDQGGYTMAADQEG", "test": "peptide array of 15-mers of human tau probed with the antibody; label LIN.AA (double alanine)"}, "PEP_2875816": {"target": "T10, PEP_2875816", "T10 peptide": "GDRKDQGGYTMHQDQ", "test": "peptide array of 15-mers of human tau probed with the antibody; label LIN"}, "PEP_2875806": {"target": "T11, PEP_2875806", "T11 peptide": "GTYGLGDRKDQGGYT", "test": "peptide array of 15-mers of human tau probed with the antibody; label LIN"}, "PEP_2875820": {"target": "T12, PEP_2875820", "T12 peptide": "RKDQGGYTMHQDQEG", "test": "peptide array of 15-mers of human tau probed with the antibody; label LIN"}, "PEP_2875818": {"target": "T13, PEP_2875818", "T13 peptide": "DRKDQGGYTMHQDQE", "test": "peptide array of 15-mers of human tau probed with the antibody; label LIN"}, "PEP_2875808": {"target": "T14, PEP_2875808", "T14 peptide": "TYGLGDRKDQGGYTM", "test": "peptide array of 15-mers of human tau probed with the antibody; label LIN"}, "PEP_2875812": {"target": "T15, PEP_2875812", "T15 peptide": "GLGDRKDQGGYTMHQ", "test": "peptide array of 15-mers of human tau probed with the antibody; label LIN"}, "PEP_2875814": {"target": "T16, PEP_2875814", "T16 peptide": "LGDRKDQGGYTMHQD", "test": "peptide array of 15-mers of human tau probed with the antibody; label LIN"}, "PEP_2875826": {"target": "T17, PEP_2875826", "T17 peptide": "QGGYTMHQDQEGDTD", "test": "peptide array of 15-mers of human tau probed with the antibody; label LIN"}, "PEP_2875822": {"target": "T18, PEP_2875822", "T18 peptide": "KDQGGYTMHQDQEGD", "test": "peptide array of 15-mers of human tau probed with the antibody; label LIN"}, "PEP_2875810": {"target": "T19, PEP_2875810", "T19 peptide": "YGLGDRKDQGGYTMH", "test": "peptide array of 15-mers of human tau probed with the antibody; label LIN"}, "PEP_2875824": {"target": "T20, PEP_2875824", "T20 peptide": "DQGGYTMHQDQEGDT", "test": "peptide array of 15-mers of human tau probed with the antibody; label LIN"}, "PEP_2875804": {"target": "T21, PEP_2875804", "T21 peptide": "AGTYGLGDRKDQGGY", "test": "peptide array of 15-mers of human tau probed with the antibody; label LIN"}, "[3]": {"target": "T22, recombinant human Tau-412 protein (human, UniProt P10636-7 1-412)", "T22 construct": "Analyte of the SPR study; also called human tau (1N4R, 412 amino acids)", "T22 sequence (P10636 other isoform, or with tags, fused parts or gaps limits assumed)": "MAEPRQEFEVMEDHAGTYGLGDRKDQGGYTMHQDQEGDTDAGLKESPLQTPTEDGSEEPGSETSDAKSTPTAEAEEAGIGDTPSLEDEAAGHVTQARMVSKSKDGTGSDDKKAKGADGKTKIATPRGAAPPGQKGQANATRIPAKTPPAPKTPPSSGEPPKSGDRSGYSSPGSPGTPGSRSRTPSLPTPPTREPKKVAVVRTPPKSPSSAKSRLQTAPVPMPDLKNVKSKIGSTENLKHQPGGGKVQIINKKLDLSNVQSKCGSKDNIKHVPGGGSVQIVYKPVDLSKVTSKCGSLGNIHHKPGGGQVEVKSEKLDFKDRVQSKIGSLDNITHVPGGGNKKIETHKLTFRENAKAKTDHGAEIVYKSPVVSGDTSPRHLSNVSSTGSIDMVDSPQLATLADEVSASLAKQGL", "test": "SPR Biacore T200, mAb captured on Protein A, Tau-412 analyte, 1-to-1 model, chip A11/1", "method": "Kinetic data was obtained at a flow rate of 40 μL/min to minimize any potential mass transfer effects. Two repeats of the blank (no antigen) and the 2.5 nM concentration of the analyte were programmed into the kinetic run in order to check the stability of both the surface and analyte over the kinetic cycles. For the initial kinetic runs, 2-fold dilutions of Tau-412 from 40 nM to 0.156 nM were run. For kinetic analysis and on subsequent runs, an analyte range of 20 nM to 0.625 nM was selected. This range covered multiple analyte concentrations both above and below the reported KD.\nThe association phase was monitored for 500 seconds to allow some of the higher concentrations of analyte to reach steady state. In order to observe a sufficient signal decrease (>10%) during the dissociation phase of the kinetic cycle, dissociation was measured for 1200 seconds. As discussed in Section 5, the Fcs were allowed to stabilize for 600 seconds after each regeneration step. The signal from the reference channel Fc1 was subtracted from that of Fc2, Fc3 and Fc4.\nThe kinetic parameters for the interaction of Tau-412 with the 7 mAbs as measured using the Protein A capture system on the Biacore T200 are shown in Table F-2. To correct for differences in the capture level of the antibody between each binding cycle, a local Rₘₐₓ parameter was used in the 1-to-1 binding model. Kinetic analysis was performed in three independent runs using fresh preparations of Tau-412 and antibody. Run 1 and runs 2+3 used different vials of the antigen Tau-412; therefore the reported errors associated with the mean response probably represent variation in preparation of the analyte and differences in assay set-up and run. From run 1 to runs 2+3, the amount of antibody injected was adjusted to try to get closer to the target 300 RU capture levels."}}, "data": [{"binder": "VH1/VK2 humanized anti-tau antibody (C2N-8E12) (antibody, human IgG4 S228P, kappa, V domains shown, Humanized recombinant IgG4 with S241P hinge mutation, human kappa light chain; also called C2N-8EI2) VH: EVKVVESGGGLVQPGGSMKLSCVVSGFTFSNYWVNWVRQAPGKGLEWVAQIRLKSDNYATHYEESVKGRFTISRDDSKSSVYLQMNNLRAEDSGIYYCTNWEDYWGQGTTVTVSS VL: DIVLTQSPDSLAVSLGERATISCRASQSVSTSRYSYIHWYQQKPGQPPKLLIKYASNLESGVPSRFSGSGSGTDFTLNIHPLEPEDFATYYCHHSWEIPLTFGQGTKLEIKR", "values": [{"measurement": "IC50 (Relative to Chimera)", "setting": "human tau [1]", "result": "0.91 relative to Chimera"}, {"measurement": "IC50 (Relative to Chimera)", "setting": "human tau [2]", "result": "1.34 relative to Chimera"}, {"measurement": "Binding Signal", "setting": "PEP_2875825", "result": 2580}, {"measurement": "Binding Signal", "setting": "PEP_2875819", "result": 2580}, {"measurement": "Binding Signal", "setting": "PEP_2875827", "result": 636}, {"measurement": "Binding Signal", "setting": "PEP_2875809", "result": 2760}, {"measurement": "Binding Signal", "setting": "PEP_2875817", "result": 661}, {"measurement": "Binding Signal", "setting": "PEP_2875811", "result": 1880}, {"measurement": "Binding Signal", "setting": "PEP_2875823", "result": 2710}, {"measurement": "Binding Signal", "setting": "PEP_2875821", "result": 2790}, {"measurement": "Binding Signal", "setting": "PEP_2875816", "result": 2700}, {"measurement": "Binding Signal", "setting": "PEP_2875806", "result": 1710}, {"measurement": "Binding Signal", "setting": "PEP_2875820", "result": 2780}, {"measurement": "Binding Signal", "setting": "PEP_2875818", "result": 2790}, {"measurement": "Binding Signal", "setting": "PEP_2875808", "result": 2590}, {"measurement": "Binding Signal", "setting": "PEP_2875812", "result": 2730}, {"measurement": "Binding Signal", "setting": "PEP_2875814", "result": 2750}, {"measurement": "Binding Signal", "setting": "PEP_2875826", "result": 789}, {"measurement": "Binding Signal", "setting": "PEP_2875822", "result": 2680}, {"measurement": "Binding Signal", "setting": "PEP_2875810", "result": 2670}, {"measurement": "Binding Signal", "setting": "PEP_2875824", "result": 2650}, {"measurement": "Binding Signal", "setting": "PEP_2875804", "result": 1290}, {"measurement": "Kd", "setting": "[3]", "result": 2.18, "unit": "nM"}, {"measurement": "koff", "setting": "[3]", "result": 0.000611, "unit": "s⁻¹"}, {"measurement": "kon", "setting": "[3]", "result": 280000, "unit": "M⁻¹ s⁻¹"}]}]}
